# According to patent US20240309103A1 (Regeneron, published 2024):
# T1: human NPR1 on HEK293/hNPR1.myc.DDK cells (0 hANP) (human, UniProt P16066 33-1061)
# T1 sequence: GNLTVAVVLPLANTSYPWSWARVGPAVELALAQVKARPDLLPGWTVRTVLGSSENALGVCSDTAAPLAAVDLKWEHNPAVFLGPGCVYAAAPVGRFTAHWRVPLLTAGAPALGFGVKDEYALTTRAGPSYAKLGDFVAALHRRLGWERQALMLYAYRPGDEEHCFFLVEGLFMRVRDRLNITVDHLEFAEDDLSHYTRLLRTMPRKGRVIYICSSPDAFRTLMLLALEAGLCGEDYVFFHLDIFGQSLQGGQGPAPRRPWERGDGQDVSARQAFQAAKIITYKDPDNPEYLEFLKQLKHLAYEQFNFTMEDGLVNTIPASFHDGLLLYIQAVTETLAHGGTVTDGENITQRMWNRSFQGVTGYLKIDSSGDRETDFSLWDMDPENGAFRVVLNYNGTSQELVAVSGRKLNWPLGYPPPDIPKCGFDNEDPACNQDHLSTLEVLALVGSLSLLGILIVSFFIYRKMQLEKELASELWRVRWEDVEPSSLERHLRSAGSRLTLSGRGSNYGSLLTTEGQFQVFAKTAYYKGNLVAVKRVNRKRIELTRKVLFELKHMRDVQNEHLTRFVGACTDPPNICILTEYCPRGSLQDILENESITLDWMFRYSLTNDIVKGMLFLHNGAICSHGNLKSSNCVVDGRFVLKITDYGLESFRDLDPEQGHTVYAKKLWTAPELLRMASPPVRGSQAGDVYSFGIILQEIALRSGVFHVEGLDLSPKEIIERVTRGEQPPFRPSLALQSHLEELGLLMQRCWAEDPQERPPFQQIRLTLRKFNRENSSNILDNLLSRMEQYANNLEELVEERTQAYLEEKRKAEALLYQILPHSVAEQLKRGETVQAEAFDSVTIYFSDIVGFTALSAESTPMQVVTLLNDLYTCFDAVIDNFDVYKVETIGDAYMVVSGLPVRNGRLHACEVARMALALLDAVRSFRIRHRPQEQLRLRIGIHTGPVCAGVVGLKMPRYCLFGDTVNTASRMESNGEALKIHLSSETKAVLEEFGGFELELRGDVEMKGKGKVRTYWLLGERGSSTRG
# T2: human NPR1 on HEK293/hNPR1.myc.DDK cells with 10 nM hANP (NPR1-ANP complex) (human, UniProt P01160 124-151)
# T2 construct: also called NPR1-ANP Complex on the Cell Surface
# T2 sequence: T1 sequence
# T2 sequence (peptide): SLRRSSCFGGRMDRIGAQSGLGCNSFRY
# T3: mNPR1-mFc (mouse)
# T3 construct: also called mouse NPR1 extracellular domain expressed with a C-terminal mouse IgG2a
# T3 chain: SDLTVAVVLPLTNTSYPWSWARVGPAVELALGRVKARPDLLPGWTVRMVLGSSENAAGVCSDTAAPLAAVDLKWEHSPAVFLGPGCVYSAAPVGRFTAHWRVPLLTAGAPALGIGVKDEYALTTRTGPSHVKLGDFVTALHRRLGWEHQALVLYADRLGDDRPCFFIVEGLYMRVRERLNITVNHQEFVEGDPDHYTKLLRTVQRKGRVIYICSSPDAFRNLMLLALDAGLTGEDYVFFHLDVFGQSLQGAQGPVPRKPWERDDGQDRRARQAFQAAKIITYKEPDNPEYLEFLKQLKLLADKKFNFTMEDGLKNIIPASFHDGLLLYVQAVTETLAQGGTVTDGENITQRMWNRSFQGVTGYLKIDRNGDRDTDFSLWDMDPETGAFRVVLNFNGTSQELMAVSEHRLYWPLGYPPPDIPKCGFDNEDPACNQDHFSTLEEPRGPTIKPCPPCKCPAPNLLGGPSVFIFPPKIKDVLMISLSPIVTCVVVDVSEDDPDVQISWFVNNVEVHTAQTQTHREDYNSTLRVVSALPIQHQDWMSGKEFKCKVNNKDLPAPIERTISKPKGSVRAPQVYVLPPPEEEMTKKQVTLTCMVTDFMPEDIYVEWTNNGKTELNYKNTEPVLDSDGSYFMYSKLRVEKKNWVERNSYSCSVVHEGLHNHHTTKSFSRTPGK
# B1: mAb22809 (antibody, human IgG4, V domains shown)
# VH: QLQLRESGPGLVKPSETLSLTCTVSGGSINDNSFFWDWIRQTPGRGLEWIGNIFFDGNTYYTPSLKSRVIISVDMSQNQFSLRLTSVTAADTALYYCARHKRSMTAWGFFDYWGQGTLVTVSS
# VL: DIQMTQSPSSLSASVGDRVTITCRASKRINTYLNWYQQKPGKAPKVLIYSASNLQSGVPSRFSGSGSGTDFTLTINSLQPEDFATYFCQQSFSAPPITFGQGTRLEIK
# B2: mAb22805 (antibody, human IgG4, V domains shown)
# VH: QVQLVESGGGVVQPGRSLRLSCAASGFTFSTYGMHWVRQAPGKGLEWVALIWNDGSNKYYADSVKGRFTISRDNSKNTLDLQMNSLRAEDTAVYYCARLNTRITGTTNLDYWGQGTLVTVSS
# VL: DIQMTQSPSSLSASVGDRVTVSCRASQSIANYLNWYQQKPGKAPNLLIYGAYTLQSGVPSRFRGSGSGTDFTLTISSLQPEDFATYYCQQTYSTPPITFGQGTRLEIK
# B3: mAb25545 (antibody, human IgG4, V domains shown)
# VH: QVQLVESGGGLVKPGGSLRLSCAASGFTFSDYHLSWIRQAPGKGLEWVSYIRSSGRTIDYAASVKGRFTISRDNAKNSLYLQMNSLRVEDTAVYYCARENWIVLKVYAGIVGAPLDQWGQGTLVTVSS
# VL: not shown
# B4: human NPR1 extracellular domain expressed with a C-terminal myc-myc-hexahistidine (hNPR1-MMH) (receptor)
# chain: GNLTVAVVLPLANTSYPWSWARVGPAVELALAQVKARPDLLPGWTVRTVLGSSENALGVCSDTAAPLAAVDLKWEHNPAVFLGPGCVYAAAPVGRFTAHWRVPLLTAGAPALGFGVKDEYALTTRAGPSYAKLGDFVAALHRRLGWERQALMLYAYRPGDEEHCFFLVEGLFMRVRDRLNITVDHLEFAEDDLSHYTRLLRTMPRKGRVIYICSSPDAFRTLMLLALEAGLCGEDYVFFHLDIFGQSLQGGQGPAPRRPWERGDGQDVSARQAFQAAKIITYKDPDNPEYLEFLKQLKHLAYEQFNFTMEDGLVNTIPASFHDGLLLYIQAVTETLAHGGTVTDGENITQRMWNRSFQGVTGYLKIDSSGDRETDFSLWDMDPENGAFRVVLNYNGTSQELVAVSGRKLNWPLGYPPPDIPKCGFDNEDPACNQDHLSTLEEQKLISEEDLGGEQKLISEEDLHHHHHH
# notes: also called hNPR.mmh; monomeric human NPR1
# Tests used:
# [1] = target: T1, human NPR1 on HEK293/hNPR1.myc.DDK …; assay: cell-based or functional assay
# [2] = target: T1, human NPR1 on HEK293/hNPR1.myc.DDK …; assay: ECL cell binding (MSD), 0 hANP
# [3] = target: T2, human NPR1 on HEK293/hNPR1.myc.DDK …; assay: ECL cell binding (MSD), +10 nM hANP
# mfNPR1-mFc:hBNP complex = target: T4, mfNPR1-mFc:hBNP complex (monkey; human, UniProt P16860 103-134); assay: SPR Biacore, mAb captured by anti-human Fc, 37C
# T4 construct: Receptor-Fc pre-complexed with 10-fold hBNP
# Experimental: (§1) Equilibrium dissociation constant (KD) for different NPR1 reagents binding to purified anti-NPR1 monoclonal antibodies (mAbs) were determined using a real-time surface plasmon resonance based Biacore 4000 biosensor. All binding studies were performed in 10 mM HEPES, 150 mM NaCl, 3 mM EDTA, and 0.05% v/v Surfactant Tween-20, pH 7.4 (HBS-ET) running buffer at 25° C. and 37° C. The Biacore CM5 sensor chip surface was first derivatized by amine coupling with either mouse anti-human Fc specific mAb (GE Healthcare, #BR100839) or goat anti-human Fcy specific polyclonal antibody (Jackson ImmunoResearch Laboratories, #BR-1008-39) to capture anti-NPR1 mAbs.
# mNPR1-mFc [4] = target: T3, mNPR1-mFc; assay: SPR Biacore, mAb captured by anti-human Fc, 37C
# Experimental: as §1
# mNPR1-mFc [5] = target: T3, mNPR1-mFc; assay: SPR Biacore, mAb captured by anti-human Fc, 25C
# Experimental: as §1
# [6] = target: T1, human NPR1 on HEK293/hNPR1.myc.DDK …; assay: ECL cell binding (MSD), HEK293/hNPR1.myc.DDK cells, 0 hANP
# Experimental: Experiments were carried out according to the following procedure. Cells from lines described above were rinsed once in 1×PBS buffer without Ca²⁺/Mg²⁺ nd incubated for 10 minutes at 37° C. with Enzyme Free Cell Dissociation Solution to detach cells from a flask. All cells were washed once with 1×PBS with Ca²⁺/Mg²⁺ and counted with a Cellometer™ Auto T4 cell counter (Nexcelom Bioscience). Approximately 2.0×10⁴ HEK293/hNPR1.myc.DDK or HEK293 cells were seeded separately onto 96-well carbon electrode plates (MULTI-ARRAY high bind plate, Meso Scale Discovery (MSD, Rockville, MD)) and incubated for 1 hour (h) at 37° C. Nonspecific binding sites were blocked by 2% BSA (w/v) in 1×PBS with Ca²⁺/Mg²⁺for 1 h at room temperature (RT). HEK293/hNPR1.myc. […] The plate-bound antibodies were detected with SULFO-TAG™-conjugated goat polyclonal anti-human IgG antibody specific for heavy and light chains (Jackson Immunoresearch, West Grove, PA) for 1 h, RT.
# After washes, plates were developed with Read Buffer (MSD, Rockville, MD) according to manufacturer's recommended procedure and luminescent signals were recorded with a SECTOR Imager 600 (MSD, Rockville, MD). Luminescence intensity, measured in relative light units (RLU), was recorded to indicate the binding intensity of each antibody at the range of concentrations.
# SEC-MALS = target: the molecule itself; assay: SEC-MALS
# Experimental: After overnight incubation in PBS at 4° C., the complexes were injected into the SEC-MALS system, which consists of a Superdex 200 Increase 10/300 GI column on an ÄKTA micro system (GE Healthcare Life Sciences), followed by a miniDAWN Treos and Optilab T-rEX (Wyatt Technology Corporation). […] Size exclusion chromatography data was evaluated using Unicorn (Version 5.20 General Electric Company), and the MALS data was evaluated using ASTRA (Version 7.0.0.69 Wyatt Technology).
Binder,"% Activation (vs ANP max), Expt 1 [1]","EC50 (nM), calcium flux, Expt 1 [1]",Ratio at 3.7 nM Ab concentration of Cell Binding Signal (RLU) to HEK293/hNPR1.myc.DKK relative to parental HEK293 [2],EC50 [3],Ratio at 3.7 nM Ab concentration of Cell Binding Signal (RLU) to HEK293/hNPR1.myc.DKK relative to parental HEK293 [3],100 nM Ag Bound (RU) (mfNPR1-mFc:hBNP complex),Kd (mfNPR1-mFc:hBNP complex),koff (mfNPR1-mFc:hBNP complex),kon (mfNPR1-mFc:hBNP complex),t½ (mfNPR1-mFc:hBNP complex),100 nM Ag Bound (RU) (mNPR1-mFc [4]),binding result (mNPR1-mFc [4]),100 nM Ag Bound (RU) (mNPR1-mFc [5]),binding result [6],"% Activation (vs. ANP max), Expt II [1]","EC50 (nM), calcium flux, Expt II [1]",binding result (SEC-MALS)
B1,86.7%,270 nM,2 ratio,0.48 nM,166 ratio,99 RU,4.29 nM,0.000229 s⁻¹,53400 M⁻¹ s⁻¹,50.5 min,0 RU,no binding (tested: 100 nM),0 RU,no binding (tested: ratio below 3 at 3.7 nM Ab),–,–,–
B2,91.6%,239 nM,1 ratio,0.65 nM,222 ratio,150 RU,3.39 nM,0.000202 s⁻¹,59600 M⁻¹ s⁻¹,57.2 min,0 RU,no binding (tested: 100 nM),0 RU,no binding (tested: ratio below 3 at 3.7 nM Ab),119%,112 nM,–
B3,123%,188 nM,1 ratio,1.9 nM,79 ratio,82 RU,2.09 nM,7.77e-05 s⁻¹,37100 M⁻¹ s⁻¹,149 min,1 RU,no binding (tested: 100 nM),0 RU,no binding (tested: ratio below 3 at 3.7 nM Ab),123%,74.1 nM,–
B4,–,–,–,–,–,–,–,–,–,–,–,–,–,–,–,–,binds
